Results from patent publication US20200399386A1 (CELGENE, published 2020).

T1: human TNFRSF12A (human, UniProt Q9NP84 28-129)
T1 construct: whole, on cells; also called TWEAKR
T1 sequence (looked up): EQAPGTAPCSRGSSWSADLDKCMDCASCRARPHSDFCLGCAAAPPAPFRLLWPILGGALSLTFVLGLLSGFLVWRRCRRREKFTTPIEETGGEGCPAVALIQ

T2: human BCMA (human, UniProt Q02223 1-184)
T2 construct: whole, on cells; Transfected (C6-BCMA) and endogenous (myeloma lines) forms are treated as the same protein on cells; also called B-cell maturation antigen; TNFRSF17
T2 sequence (looked up): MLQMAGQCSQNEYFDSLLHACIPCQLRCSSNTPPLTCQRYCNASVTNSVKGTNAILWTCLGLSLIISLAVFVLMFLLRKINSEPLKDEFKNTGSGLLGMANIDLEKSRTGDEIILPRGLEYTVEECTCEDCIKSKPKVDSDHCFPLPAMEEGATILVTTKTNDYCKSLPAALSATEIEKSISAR

T3: TACI (UniProt O14836 1-293, limits assumed)
T3 construct: whole, on cells
T3 sequence (looked up): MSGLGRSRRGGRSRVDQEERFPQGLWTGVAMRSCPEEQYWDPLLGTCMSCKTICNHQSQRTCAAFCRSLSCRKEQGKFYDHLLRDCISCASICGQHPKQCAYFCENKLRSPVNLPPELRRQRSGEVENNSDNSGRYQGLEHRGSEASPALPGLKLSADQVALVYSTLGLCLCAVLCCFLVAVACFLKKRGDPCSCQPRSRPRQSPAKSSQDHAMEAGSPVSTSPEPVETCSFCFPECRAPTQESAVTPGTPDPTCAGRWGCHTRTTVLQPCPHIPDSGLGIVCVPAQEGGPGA

T4: BAFF receptor (UniProt Q96RJ3 1-184, limits assumed)
T4 construct: whole, on cells
T4 sequence (looked up): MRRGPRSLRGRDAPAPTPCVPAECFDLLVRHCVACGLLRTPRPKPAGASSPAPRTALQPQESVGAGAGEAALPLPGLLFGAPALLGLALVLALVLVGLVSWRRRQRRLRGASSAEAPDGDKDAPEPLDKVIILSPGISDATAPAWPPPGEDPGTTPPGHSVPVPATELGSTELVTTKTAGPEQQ


How the values were obtained:
human TNFRSF12A = biological target: T1, human TNFRSF12A; experiment: flow cytometry on Hek293 cells stably transfected with human TNFRSF12A
Description: (§1) FACS Analysis: FACs antibodies used in this study include: 1) LS-C106982-100 Mouse Monoclonal to Human TNFRSF12A-R-Phycoerythrin (PE) (LifeSpan BioSciences, Inc.); 2) EM901 has been previously characterized as a BCMA-binding antibody (Mab42; International Application Number WO2017/021450); 3) Ebiosciences anti-human IgG Fey-specific, labeled with PE; 4) Human IgG isotype control; 5) Anti-TACI antibody [1A1](Abcam); 6) BAFF Receptor antibody 8A7 (ThermoFisher); 7) BCMA antibody 19F2 (BioLegend). Each cell type (75,000 cells/well) was incubated with primary antibodies in FACs buffer (PBS containing 0.2% BSA) for 25 min in a 96 well plate. Cells were washed once with FACs buffer and incubated with 1:100 dilution secondary antibody for 25 min. After washing once, cells were fixed for 10 min with 1% paraformaldehyde, washed with FACs buffer and resuspended in 100 μL FACs buffer. Labeled cells were analyzed using an Attune NxT Flow Cytometer and data processed using FlowJo 10.0.8r1 (FLOWJO LLC), according to the manufacturer's instructions.
The reactivity of each antibody was monitored by FACs. An anti-TNFRSF12A antibody stained Hek293-TNFRSF12A cells, indicative of TNFRSF12A expression. […] Geometric means quantifying these binding interactions are shown (FIG. 3).

human BCMA [1] = biological target: T2, human BCMA; experiment: flow cytometry on C6 cells stably transfected with human BCMA, 0.4 ug/ml antibody
Description: as §1
(§2) The reactivity of each antibody was monitored by FACs. […] Geometric mean values quantifying these binding interactions are included (FIG. 2).

human BCMA [2] = biological target: T2, human BCMA; experiment: flow cytometry on NCIH929 cells
Description: as §1
The reactivity of each mAb was monitored by FACs. The EM901 antibody, that recognizes BCMA, robustly bound NCIH929 cells. […] Geometric means quantifying these binding interactions are shown (FIG. 4).

TACI = biological target: T3, TACI; experiment: flow cytometry, dose response on NUDHL1 cells
Description: as §1
(§3) The reactivity of each mAb was monitored by FACs. […] Geometric means quantifying these binding interactions are shown (FIG. 5).

BAFF receptor = biological target: T4, BAFF receptor; experiment: flow cytometry, dose response on NUDHL1 cells
Description: as §1, §3

human BCMA [3] = biological target: T2, human BCMA; experiment: flow cytometry on C6 cells expressing human BCMA
Description: as §1, §2

Row | Binder | binding result (human TNFRSF12A) | binding result (human BCMA [1]) | binding result (human BCMA [2]) | binding result (TACI) | binding result (BAFF receptor) | binding result (human BCMA [3])
1 | 319883 (antibody, IgG1, V domains shown) VH: QLQLQESGPGLVKPSDTLSLTCTVSGGSISSSNSYWGWIRQSPGRGLEWIGRIYYSGITHYNPSLKSRVTISVDTSKNQFSLKLSSVTAADTAVYYCASPYKWNDGNFFGWGQGTLVTVSS VL: not shown | no binding (tested: 0.4 ug/ml) | binds | – | – | – | –
2 | 319966 (antibody, IgG1, V domains shown, also called human IgG antibody 319966) VH: QLQLQESGPGLVKPSETLSLTCTVSGSSISRSNYYWGWIRQPPGKGLEWIGTFYYSGTTYYNPSLKSRVTISEDTSKKQLSLNLRSVTAADTAVYYCARPSGYTTSWGQGTLVTVSS VL: not shown | no binding (tested: 0.4 ug/ml) | – | binds | – | – | –

Second part, the binder after the results:

Row | binding result (human TNFRSF12A) | binding result (human BCMA [1]) | binding result (human BCMA [2]) | binding result (TACI) | binding result (BAFF receptor) | binding result (human BCMA [3]) | Binder
3 | no binding (tested: 0.4 ug/ml) | binds | – | – | – | – | 320199 (antibody, IgG1, V domains shown, also called human IgG antibody 320199) VH: QLQLQESGPGLVKPSETLSLTCTVSGGSISSSNSYWGWIRQSPGRGLEWIGRIYYSGITHYNPSLKSRVTISVDTSKNQFSLKLSSVTAADTAVYYCASPYKWNDGNFFGWGQGTLVTVSS VL: not shown
4 | no binding (tested: 0.4 ug/ml) | – | – | no binding | no binding | binds | 320262 (antibody, IgG1, V domains shown) VH: QLQLQESGPGLVKPSETLSLTCTVSGGSISNSNYYWGWIRQPPGKGLEWIGNIYYSGRTYYTPSLKSRVTISEDTSKNQFSLKVRSVTVADTGVYYCARPDYYGSGTIAWGQGTLVTVSS VL: not shown
5 | no binding (tested: 0.4 ug/ml) | – | binds | no binding | no binding | – | 320111 (antibody, IgG1, V domains shown) VH: QLPLQESGPGLVKPSETLSLTCTVSGGSIRSSSYYWGWIRQPPGKGLEWIGTIYYSGSTYYNPSLKSRVTISVDTSKNQLSLKLSSVTAADTAVYYCARPYYDSSGYYYYWGQGTLVTVSS VL: not shown
